This passage reports IC50 results from article PMC8748714 (2022).

A word on the IC50: it is the concentration at which inhibition is half-maximal. Low values mean greater potency, high ones weaker potency.

Changes are numbered by the printed parent chain. No end group written: not given here.

Assay [1] deals with T1, GLP-1R E138A (Homo sapiens).
T1 chain: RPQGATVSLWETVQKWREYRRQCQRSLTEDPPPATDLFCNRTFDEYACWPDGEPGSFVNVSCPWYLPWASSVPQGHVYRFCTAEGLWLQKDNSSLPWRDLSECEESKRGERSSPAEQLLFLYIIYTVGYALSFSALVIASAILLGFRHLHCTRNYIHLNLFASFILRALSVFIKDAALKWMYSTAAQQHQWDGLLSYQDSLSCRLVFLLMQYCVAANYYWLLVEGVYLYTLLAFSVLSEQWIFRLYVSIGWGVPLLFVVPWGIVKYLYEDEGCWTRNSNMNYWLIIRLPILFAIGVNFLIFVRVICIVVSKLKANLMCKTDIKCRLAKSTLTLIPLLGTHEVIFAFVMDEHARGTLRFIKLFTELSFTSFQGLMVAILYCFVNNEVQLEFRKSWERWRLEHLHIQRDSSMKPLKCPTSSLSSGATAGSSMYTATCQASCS

Assay [2] has as its target T2, GLP-1R H212A (Homo sapiens).
T2 chain: T1 chain with A115E, H189A

Assay [3] concerns the target T3, GLP-1R Y205A (Homo sapiens).
T3 chain: T1 chain with A115E, Y182A

The target of assay [4] is T4, GLP-1R M204A (Homo sapiens).
T4 chain: T1 chain with A115E, M181A

Assay [5] concerns the target T5, GLP-1R V194A (Homo sapiens).
T5 chain: T1 chain with A115E, V171A

The target in assay [6] is T6, GLP-1R L141A (Homo sapiens).
T6 chain: T1 chain with A115E, L118A

In the case of HSQGTFTSDYSKYLDSRRAQDFVQWLMNTKRNRNNIA [oxyntomodulin], the IC50 worked out at 0.0457 µM in assay [1]; 0.0129 µM in assay [2]; 0.0363 µM in assay [3]; 0.741 µM in assay [4]; 0.0776 µM in assay [5]; 0.603 µM in assay [6].

As for HAEGTFTSDVSSYLEGQAAKEFIAWLVKGR (not fully specified (C-terminus)) [glucagon-like peptide-1], the IC50 is 0.00692 µM in assay [1]; 0.00123 µM in assay [2]; 0.00309 µM in assay [3]; 0.0794 µM in assay [4]; 0.00617 µM in assay [5]; 0.0141 µM in assay [6].
